Tests used:
SHP2-C SH2 = experiment: SH2 binding enrichment of the phosphorylated peptide, bacterial display (enrichment ratio); higher = better substrate or ligand; peptides without Tyr show the background
c-Src SH2 = experiment: as above
Grb2 SH2 = Grb2 SH2 (UniProt P62993); experiment: as above
Jak2 = Jak2 (UniProt O60674); experiment: phosphorylation enrichment, bacterial display (enrichment ratio); higher = better substrate or ligand; peptides without Tyr show the background
c-Abl (mouse) = experiment: as above
Hck = Hck (UniProt P08631); experiment: as above
Sequence of Hck (P08631 whole entry, looked up): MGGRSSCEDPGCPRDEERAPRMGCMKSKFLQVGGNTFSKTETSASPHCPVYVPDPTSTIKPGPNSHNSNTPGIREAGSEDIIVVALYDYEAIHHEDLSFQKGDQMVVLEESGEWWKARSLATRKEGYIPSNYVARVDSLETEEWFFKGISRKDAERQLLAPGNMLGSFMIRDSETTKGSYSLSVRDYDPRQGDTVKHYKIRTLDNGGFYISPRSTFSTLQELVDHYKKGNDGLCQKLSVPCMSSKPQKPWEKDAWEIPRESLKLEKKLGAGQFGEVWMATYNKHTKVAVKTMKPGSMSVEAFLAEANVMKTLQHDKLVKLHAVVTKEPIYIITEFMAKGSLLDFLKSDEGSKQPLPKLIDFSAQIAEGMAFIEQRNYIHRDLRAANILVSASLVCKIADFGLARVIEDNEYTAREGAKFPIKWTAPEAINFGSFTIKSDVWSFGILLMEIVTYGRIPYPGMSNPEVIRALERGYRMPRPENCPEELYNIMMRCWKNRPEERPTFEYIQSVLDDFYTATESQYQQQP

Fer (mouse) = experiment: as above
FGFR1 = FGFR1 (UniProt P11362); experiment: as above
Sequence of FGFR1 (P11362 whole entry, looked up): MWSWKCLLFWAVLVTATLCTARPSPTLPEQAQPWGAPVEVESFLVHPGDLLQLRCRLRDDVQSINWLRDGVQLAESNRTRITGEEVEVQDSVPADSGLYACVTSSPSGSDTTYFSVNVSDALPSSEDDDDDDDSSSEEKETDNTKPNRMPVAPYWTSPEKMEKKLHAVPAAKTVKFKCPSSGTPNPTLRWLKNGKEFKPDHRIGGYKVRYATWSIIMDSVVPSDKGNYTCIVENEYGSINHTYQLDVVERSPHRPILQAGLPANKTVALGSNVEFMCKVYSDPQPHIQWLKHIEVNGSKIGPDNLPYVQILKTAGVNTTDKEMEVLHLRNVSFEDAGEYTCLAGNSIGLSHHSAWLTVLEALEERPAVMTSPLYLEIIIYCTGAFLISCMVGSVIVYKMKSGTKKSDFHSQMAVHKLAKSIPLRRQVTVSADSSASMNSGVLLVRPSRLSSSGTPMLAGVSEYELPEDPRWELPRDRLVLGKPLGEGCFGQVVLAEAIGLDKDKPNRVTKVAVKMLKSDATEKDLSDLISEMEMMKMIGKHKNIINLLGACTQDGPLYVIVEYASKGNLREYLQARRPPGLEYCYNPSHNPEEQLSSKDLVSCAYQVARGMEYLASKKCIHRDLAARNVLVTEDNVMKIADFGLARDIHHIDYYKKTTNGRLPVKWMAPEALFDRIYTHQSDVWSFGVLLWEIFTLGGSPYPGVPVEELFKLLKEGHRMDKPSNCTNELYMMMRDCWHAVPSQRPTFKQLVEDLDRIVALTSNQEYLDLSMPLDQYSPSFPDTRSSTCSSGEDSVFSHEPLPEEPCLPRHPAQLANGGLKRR

c-Src = experiment: as above
EPHB2 = EPHB2 (UniProt P29323); experiment: as above
AncSZ = experiment: as above
EPHB1 = EPHB1 (UniProt P54762); experiment: as above
Sequence of EPHB1 (P54762 whole entry, looked up): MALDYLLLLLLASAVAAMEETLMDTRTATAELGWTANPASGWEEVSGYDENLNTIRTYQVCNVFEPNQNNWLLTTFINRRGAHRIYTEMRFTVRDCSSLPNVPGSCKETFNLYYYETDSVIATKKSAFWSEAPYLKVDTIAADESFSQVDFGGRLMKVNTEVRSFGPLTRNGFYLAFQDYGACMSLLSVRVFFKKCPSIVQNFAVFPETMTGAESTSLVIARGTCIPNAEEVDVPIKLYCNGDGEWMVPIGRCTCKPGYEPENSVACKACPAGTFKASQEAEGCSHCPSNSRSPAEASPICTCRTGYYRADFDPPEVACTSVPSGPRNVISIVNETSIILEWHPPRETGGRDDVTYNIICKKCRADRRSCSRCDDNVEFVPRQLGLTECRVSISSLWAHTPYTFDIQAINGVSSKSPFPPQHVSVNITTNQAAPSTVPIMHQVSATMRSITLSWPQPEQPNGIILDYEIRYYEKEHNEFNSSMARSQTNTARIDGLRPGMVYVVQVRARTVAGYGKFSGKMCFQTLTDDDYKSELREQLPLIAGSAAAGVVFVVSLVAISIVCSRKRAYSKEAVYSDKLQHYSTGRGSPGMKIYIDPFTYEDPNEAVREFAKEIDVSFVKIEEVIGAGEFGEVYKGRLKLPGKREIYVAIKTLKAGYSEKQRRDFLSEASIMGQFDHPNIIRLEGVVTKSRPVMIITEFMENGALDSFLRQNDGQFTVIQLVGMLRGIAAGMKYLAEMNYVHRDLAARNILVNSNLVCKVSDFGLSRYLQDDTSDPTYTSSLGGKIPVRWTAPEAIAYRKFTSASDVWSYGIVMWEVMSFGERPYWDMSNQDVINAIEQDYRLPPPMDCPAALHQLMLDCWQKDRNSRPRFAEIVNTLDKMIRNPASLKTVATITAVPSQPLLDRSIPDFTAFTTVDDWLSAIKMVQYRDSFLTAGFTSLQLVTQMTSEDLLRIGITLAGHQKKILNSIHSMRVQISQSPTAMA

Fyn = Fyn (UniProt P06241); experiment: as above
MERTK = MERTK (UniProt Q12866); experiment: as above
Sequence of MERTK (Q12866 whole entry, looked up): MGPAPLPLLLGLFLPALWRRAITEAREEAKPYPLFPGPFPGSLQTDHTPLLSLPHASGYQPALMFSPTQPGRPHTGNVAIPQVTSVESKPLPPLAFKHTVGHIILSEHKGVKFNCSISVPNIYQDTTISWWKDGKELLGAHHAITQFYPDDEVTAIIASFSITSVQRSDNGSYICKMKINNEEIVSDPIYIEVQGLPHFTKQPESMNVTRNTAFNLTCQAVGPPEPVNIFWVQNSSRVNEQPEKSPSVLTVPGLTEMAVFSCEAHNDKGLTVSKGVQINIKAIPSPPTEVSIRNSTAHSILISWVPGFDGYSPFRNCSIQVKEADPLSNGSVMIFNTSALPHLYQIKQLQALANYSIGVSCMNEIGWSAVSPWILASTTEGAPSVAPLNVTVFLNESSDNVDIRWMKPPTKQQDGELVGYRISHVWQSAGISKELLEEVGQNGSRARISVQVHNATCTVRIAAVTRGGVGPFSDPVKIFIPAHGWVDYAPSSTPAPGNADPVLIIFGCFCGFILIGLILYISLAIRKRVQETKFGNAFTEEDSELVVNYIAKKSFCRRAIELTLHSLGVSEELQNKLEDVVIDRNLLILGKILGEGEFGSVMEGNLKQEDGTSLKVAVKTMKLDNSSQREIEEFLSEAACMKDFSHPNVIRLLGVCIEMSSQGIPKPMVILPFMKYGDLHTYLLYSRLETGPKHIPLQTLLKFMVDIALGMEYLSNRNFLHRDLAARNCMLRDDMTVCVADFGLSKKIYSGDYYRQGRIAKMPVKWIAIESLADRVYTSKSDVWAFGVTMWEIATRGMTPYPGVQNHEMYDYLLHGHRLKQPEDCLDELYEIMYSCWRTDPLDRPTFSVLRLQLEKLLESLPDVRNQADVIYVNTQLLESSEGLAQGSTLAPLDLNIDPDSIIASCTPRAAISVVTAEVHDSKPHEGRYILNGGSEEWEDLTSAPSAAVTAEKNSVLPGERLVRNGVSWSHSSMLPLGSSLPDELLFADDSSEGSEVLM

Fes = Fes (UniProt P07332); experiment: as above
Sequence of Fes (P07332 whole entry, looked up): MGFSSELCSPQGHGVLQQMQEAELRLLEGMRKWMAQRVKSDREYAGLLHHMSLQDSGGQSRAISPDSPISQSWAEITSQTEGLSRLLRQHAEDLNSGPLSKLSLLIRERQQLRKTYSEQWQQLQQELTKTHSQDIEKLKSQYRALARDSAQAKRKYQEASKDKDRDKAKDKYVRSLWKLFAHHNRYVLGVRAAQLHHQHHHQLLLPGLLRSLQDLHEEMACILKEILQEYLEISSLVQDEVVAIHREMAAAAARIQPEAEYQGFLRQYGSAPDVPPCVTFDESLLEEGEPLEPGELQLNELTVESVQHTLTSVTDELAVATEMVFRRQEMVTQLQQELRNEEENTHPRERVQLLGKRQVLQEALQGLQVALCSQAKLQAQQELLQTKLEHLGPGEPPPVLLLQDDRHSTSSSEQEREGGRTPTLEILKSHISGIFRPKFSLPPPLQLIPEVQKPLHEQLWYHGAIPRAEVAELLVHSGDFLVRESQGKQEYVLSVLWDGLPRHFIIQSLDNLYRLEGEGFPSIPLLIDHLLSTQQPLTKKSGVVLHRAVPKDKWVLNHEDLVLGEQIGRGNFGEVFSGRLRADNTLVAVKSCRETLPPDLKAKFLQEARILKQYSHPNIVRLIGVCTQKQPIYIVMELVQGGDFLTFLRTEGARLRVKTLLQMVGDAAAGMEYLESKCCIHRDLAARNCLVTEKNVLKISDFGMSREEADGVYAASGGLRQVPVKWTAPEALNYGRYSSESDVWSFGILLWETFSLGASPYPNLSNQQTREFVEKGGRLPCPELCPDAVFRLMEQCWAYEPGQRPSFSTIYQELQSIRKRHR

FGFR3 = FGFR3 (UniProt P22607); experiment: as above
Sequence of FGFR3 (P22607 whole entry, looked up, the tested form may be a part): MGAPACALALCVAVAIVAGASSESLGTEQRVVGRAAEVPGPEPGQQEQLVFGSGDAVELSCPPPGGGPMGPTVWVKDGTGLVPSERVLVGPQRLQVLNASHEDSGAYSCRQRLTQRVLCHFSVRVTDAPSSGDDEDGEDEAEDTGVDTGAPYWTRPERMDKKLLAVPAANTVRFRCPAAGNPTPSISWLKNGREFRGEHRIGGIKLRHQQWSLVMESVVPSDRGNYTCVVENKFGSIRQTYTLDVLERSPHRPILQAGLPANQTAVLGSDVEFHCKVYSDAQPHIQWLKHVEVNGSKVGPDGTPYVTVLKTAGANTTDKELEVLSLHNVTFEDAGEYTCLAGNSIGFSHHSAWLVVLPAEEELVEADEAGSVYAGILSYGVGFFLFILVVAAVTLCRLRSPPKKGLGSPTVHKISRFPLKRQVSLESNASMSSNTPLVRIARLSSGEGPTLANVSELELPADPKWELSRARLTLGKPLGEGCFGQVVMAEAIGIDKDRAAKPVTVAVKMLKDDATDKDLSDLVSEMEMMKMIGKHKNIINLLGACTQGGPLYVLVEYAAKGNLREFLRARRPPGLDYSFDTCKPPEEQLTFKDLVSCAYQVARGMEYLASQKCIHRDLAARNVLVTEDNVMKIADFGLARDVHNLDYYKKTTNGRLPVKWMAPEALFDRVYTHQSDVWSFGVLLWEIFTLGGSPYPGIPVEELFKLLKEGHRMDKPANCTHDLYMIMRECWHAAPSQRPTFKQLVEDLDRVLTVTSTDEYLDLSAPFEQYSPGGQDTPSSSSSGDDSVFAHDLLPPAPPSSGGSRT
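For SH2 binding enrichment of the phosphorylated peptide, bacterial display in this document: peptide library displayed on the E. coli surface as eCPX fusions, selected cells deep-sequenced, score is each peptide's frequency after selection divided by its frequency in the input.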
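For phosphorylation enrichment, bacterial display in this document: 11-residue human phosphosite peptides and single-mutation variants displayed on the E. coli surface, counted by deep sequencing, each peptide's frequency after selection divided by its frequency in the unselected input library; frequency after pTyr selection over input frequency; kinase dosed for 20-30% of maximal phosphorylation in three min.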

SH2 binding enrichment (SHP2-C SH2)	SH2 binding enrichment (c-Src SH2)	SH2 binding enrichment (Grb2 SH2)	Sequence	phosphorylation enrichment (Jak2)	phosphorylation enrichment (c-Abl (mouse))	phosphorylation enrichment (Hck)	phosphorylation enrichment (Fer (mouse))	phosphorylation enrichment (FGFR1)	phosphorylation enrichment (c-Src)	phosphorylation enrichment (EPHB2)	phosphorylation enrichment (AncSZ)	phosphorylation enrichment (EPHB1)	phosphorylation enrichment (Fyn)	phosphorylation enrichment (MERTK)	phosphorylation enrichment (Fes)	phosphorylation enrichment (FGFR3)
0.642	0.557	0.977	SSNPEYLSASD [INSR_Y999]	0.961	0.719	0.462	0.491	0.498	0.458	0.594	1.12	0.514	0.531	0.476	1	0.695
1.21	0.721	1.35	SSPQLYLVPFL [TAF4_Y652_P651L]	7	13.2	0.907	1.23	2.18	0.721	3.08	1.3	4.26	0.7	7.97	0.974	2.11
2.4	2.23	0.853	SSQTVYQRVEG [TFR2_Y23]	0.596	0.458	0.77	0.517	0.526	0.585	0.447	0.962	0.631	0.6	0.499	0.708	0.483
0.659	0.449	0.76	SSREGYVSHHN [FAM83B_Y433]	0.48	0.445	0.354	0.326	0.443	0.399	0.321	0.548	0.345	0.457	0.453	0.502	0.464
0.609	0.774	0.897	SSTAMYSAAGR [PSMB1_Y8_P11A]	0.458	0.444	0.755	0.442	0.512	0.424	0.364	0.451	0.35	0.403	0.511	0.455	0.342
1.09	0.417	0.833	STKPQYQPGEN [SRC_Y530_E527K]	0.63	0.519	0.361	0.311	0.389	0.396	0.36	0.575	0.363	0.363	0.395	0.579	0.412
0.571	0.558	0.675	STSFDYCRVPM [BST2_Y8_YF]	2.03	0.932	1.57	0.827	5.41	0.957	5.96	2.98	9.03	0.828	0.903	1.32	3.97
0.53	0.393	0.72	SVGGLYRDMGA [CBX8_Y321_G317V]	0.734	0.555	0.481	0.446	0.541	0.385	0.43	0.699	0.567	0.408	0.483	0.791	0.561
1.67	1.38	1.72	SVNIRYLLFPS [SERAC1_Y548]	1.25	0.817	0.558	0.469	0.574	0.463	0.634	1.08	0.714	0.47	0.46	1.36	0.929
0.656	0.517	0.772	SVQVDYMKTIL [GLYATL2_Y127]	0.791	0.642	0.517	0.644	0.505	0.446	0.611	0.908	0.527	0.407	0.428	0.776	0.643
0.651	0.487	0.941	SVSVNYGDQVQ [GRAP_Y101]	0.794	0.804	0.416	0.442	0.481	0.429	0.483	0.748	0.443	0.409	0.545	0.902	0.561
0.66	0.457	0.802	SVTCAYSPALN [TP53_Y126_T125A]	0.98	0.79	0.608	0.64	0.557	0.583	0.577	1.26	0.726	0.616	0.525	1.2	0.757
0.532	0.599	1.01	SVTCTYSPALD [TP53_Y126_N131D]	1.51	1.24	0.656	0.821	0.616	0.745	0.816	1.74	0.882	0.641	0.466	1.76	1.01
0.554	0.425	0.635	SVTCTYSPAPN [TP53_Y126_L130P]	0.999	0.776	0.501	0.503	0.495	0.509	0.581	1.12	0.517	0.435	0.362	1.14	0.83
0.574	0.422	0.698	SVTCTYTPALN [TP53_Y126_S127T]	1.24	0.88	0.511	0.478	0.5	0.455	0.639	1.43	0.633	0.49	0.404	1.29	0.811

Sequence	SH2 binding enrichment (SHP2-C SH2)	SH2 binding enrichment (c-Src SH2)	SH2 binding enrichment (Grb2 SH2)	phosphorylation enrichment (Jak2)	phosphorylation enrichment (c-Abl (mouse))	phosphorylation enrichment (Hck)	phosphorylation enrichment (Fer (mouse))	phosphorylation enrichment (FGFR1)	phosphorylation enrichment (c-Src)	phosphorylation enrichment (EPHB2)	phosphorylation enrichment (AncSZ)	phosphorylation enrichment (EPHB1)	phosphorylation enrichment (Fyn)	phosphorylation enrichment (MERTK)	phosphorylation enrichment (Fes)	phosphorylation enrichment (FGFR3)
STTSDYQWDFS [MTDH_Y364_V368F]	0.637	0.573	0.821	1.14	0.736	0.524	0.598	1.24	0.58	0.776	1.36	0.905	0.473	0.409	1.1	1.27
